Changes are numbered by the printed parent chain. Names may count otherwise. Read-outs that look alike come from different tables or passages of the source. Each block holds one binder with its values, some of them ahead of it.
Key:
[1] = molecular target: T1, yeast E2 Ubc9 (wild type) (yeast, UniProt P50623 1-157); assay: fluorescence polarisation
T1 sequence (looked up): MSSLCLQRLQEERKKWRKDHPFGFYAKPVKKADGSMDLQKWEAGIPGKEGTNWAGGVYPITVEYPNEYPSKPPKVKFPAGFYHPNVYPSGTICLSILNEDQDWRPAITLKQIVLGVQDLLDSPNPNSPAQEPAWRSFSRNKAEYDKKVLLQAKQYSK

[2] = molecular target: T2, yeast E3 active fragment Siz1^(167–465) (yeast, UniProt Q04195 167-465); assay: competitive inhibition of multiple turnover SUMO conjugation
T2 sequence (looked up): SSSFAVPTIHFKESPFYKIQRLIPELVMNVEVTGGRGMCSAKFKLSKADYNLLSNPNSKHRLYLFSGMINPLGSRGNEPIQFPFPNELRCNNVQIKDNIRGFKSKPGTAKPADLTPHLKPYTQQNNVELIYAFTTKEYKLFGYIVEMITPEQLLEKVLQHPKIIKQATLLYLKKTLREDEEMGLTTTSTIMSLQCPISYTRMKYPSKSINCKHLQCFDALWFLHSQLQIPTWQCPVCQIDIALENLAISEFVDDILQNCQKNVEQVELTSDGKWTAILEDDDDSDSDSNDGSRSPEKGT

[3] = molecular target: T2, yeast E3 active fragment Siz1^(167–465); assay: as above; remark: listed apart in the source

Kd [1]: 24.6 nM
B1: Smt3^K11C-Alexa488 (natural protein)
chain: SDSEVNQEACPEVKPEVKPETHINLKVSDGSSEIFFKIKKTTPLRRLMEAFAKRQGKEMDSLRFLYDGIRIQADQTPEDLDMEDNDIIEAHREQIGG
modifications: Alexa Fluor 488 maleimide on Cys11

Ki [2]: 4330 nM
Ki [3]: 3150 nM
B2: Ubc9^A129K/K153R-Smt3 thioester mimetic (complex)
chain 1: T1 sequence (looked up) with A129K, K153R
chain 2: B1 chain with C10K
modifications: Lys129 linked to the C-terminus of Smt3 | C-terminus linked to Lys129 of Ubc9

Ki [2]: 2050 nM
Ki [3]: 1440 nM
B3: Ubc9^C93K-Smt3 thioester mimetic (complex)
chain 1: T1 sequence (looked up) with C93K
chain 2: B1 chain with C10K
modifications: Lys93 linked to the C-terminus of Smt3 (stable peptide bond) | C-terminus linked to Lys93 of Ubc9

— paper PMC5019495 (Nature, 2016)
